The values below come from patent publication US6653460B1 (priority 1996, dated 2003).

Several values for one entry are separate records, joined by “and”; a condition that tells them apart may be missing. Equal values may be shown once. Read-outs that look alike come from different tables or passages of the source.

Assay [1] addresses T1, N-type calcium channels (IMR-32 neuroblastoma cells) (Homo sapiens, UniProt Q00975).
T1 construct: host or cells: IMR-32 (differentiated)
The assay is described as follows: cell-based.

The target of assay [2] is class A (P/Q) calcium channels (Oryctolagus cuniculus, UniProt P27884). The assay is described as follows: Two-electrode voltage clamp of barium currents in Xenopus oocytes expressing class A alpha-1 subunits. The settings on record: 4 mM barium. A general note: Two-electrode voltage clamp is typically applied to oocytes expressing channels or transporters.
Sequence of class A (P/Q) calcium channels (P27884 whole entry): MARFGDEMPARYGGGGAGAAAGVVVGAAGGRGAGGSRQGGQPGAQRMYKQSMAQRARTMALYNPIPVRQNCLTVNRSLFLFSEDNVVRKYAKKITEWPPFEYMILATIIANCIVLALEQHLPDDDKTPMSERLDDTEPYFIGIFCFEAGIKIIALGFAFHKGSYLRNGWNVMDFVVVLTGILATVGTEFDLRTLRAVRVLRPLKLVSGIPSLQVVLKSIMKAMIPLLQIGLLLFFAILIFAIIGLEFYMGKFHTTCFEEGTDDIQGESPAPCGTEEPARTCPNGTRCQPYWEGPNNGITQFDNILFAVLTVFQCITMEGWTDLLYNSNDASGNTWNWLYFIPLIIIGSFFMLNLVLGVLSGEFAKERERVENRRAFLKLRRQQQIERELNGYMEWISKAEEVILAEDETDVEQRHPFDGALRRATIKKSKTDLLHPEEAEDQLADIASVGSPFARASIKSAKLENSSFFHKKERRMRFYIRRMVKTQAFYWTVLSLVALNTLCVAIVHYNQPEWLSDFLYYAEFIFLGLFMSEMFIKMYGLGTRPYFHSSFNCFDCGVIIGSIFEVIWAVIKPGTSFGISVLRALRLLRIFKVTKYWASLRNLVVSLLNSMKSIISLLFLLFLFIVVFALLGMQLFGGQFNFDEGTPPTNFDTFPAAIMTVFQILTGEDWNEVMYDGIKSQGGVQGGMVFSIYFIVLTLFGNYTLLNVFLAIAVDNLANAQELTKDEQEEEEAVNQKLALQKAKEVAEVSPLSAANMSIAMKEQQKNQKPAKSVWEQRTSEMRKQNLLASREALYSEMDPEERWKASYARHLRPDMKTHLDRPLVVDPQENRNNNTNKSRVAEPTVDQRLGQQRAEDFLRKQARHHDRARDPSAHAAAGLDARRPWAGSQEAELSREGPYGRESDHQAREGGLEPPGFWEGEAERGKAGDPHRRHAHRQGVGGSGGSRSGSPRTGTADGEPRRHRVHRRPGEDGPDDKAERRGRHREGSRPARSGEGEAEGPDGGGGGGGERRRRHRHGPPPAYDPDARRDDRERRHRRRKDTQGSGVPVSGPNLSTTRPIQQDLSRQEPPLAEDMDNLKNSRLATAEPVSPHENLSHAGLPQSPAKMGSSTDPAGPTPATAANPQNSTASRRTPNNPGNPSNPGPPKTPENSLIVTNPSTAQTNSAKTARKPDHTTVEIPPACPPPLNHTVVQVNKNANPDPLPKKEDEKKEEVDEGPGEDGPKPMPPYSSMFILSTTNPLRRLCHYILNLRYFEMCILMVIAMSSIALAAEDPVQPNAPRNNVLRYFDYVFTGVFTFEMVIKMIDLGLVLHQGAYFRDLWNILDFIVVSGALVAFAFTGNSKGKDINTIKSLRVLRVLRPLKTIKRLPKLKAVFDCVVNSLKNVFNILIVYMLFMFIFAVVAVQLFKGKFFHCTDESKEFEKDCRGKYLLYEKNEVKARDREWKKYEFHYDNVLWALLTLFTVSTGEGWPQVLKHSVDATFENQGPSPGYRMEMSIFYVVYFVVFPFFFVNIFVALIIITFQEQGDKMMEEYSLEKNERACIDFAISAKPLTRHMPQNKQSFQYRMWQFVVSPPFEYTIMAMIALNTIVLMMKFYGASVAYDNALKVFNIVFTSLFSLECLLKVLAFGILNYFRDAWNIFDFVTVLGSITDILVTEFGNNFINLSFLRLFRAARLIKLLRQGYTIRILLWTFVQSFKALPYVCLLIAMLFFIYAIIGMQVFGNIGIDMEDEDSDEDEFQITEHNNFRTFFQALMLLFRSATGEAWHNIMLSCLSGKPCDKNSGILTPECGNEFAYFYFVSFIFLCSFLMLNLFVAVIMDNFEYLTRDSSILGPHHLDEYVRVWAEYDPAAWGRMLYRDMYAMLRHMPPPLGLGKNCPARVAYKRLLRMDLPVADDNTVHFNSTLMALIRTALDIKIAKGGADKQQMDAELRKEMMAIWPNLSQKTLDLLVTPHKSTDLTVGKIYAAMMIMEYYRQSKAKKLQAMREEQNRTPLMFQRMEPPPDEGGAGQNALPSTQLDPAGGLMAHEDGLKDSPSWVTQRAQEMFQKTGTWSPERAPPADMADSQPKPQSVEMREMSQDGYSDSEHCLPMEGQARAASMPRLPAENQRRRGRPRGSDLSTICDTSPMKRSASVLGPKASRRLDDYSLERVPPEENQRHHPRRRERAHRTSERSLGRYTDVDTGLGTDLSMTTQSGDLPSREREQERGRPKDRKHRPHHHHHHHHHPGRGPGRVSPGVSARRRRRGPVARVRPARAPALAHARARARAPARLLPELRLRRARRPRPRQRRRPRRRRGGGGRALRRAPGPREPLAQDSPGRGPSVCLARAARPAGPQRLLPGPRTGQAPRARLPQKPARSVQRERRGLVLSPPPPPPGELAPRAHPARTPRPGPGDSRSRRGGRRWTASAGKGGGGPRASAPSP
Sequence of class A (P/Q) calcium channels (P13806 27-960 partner limits assumed): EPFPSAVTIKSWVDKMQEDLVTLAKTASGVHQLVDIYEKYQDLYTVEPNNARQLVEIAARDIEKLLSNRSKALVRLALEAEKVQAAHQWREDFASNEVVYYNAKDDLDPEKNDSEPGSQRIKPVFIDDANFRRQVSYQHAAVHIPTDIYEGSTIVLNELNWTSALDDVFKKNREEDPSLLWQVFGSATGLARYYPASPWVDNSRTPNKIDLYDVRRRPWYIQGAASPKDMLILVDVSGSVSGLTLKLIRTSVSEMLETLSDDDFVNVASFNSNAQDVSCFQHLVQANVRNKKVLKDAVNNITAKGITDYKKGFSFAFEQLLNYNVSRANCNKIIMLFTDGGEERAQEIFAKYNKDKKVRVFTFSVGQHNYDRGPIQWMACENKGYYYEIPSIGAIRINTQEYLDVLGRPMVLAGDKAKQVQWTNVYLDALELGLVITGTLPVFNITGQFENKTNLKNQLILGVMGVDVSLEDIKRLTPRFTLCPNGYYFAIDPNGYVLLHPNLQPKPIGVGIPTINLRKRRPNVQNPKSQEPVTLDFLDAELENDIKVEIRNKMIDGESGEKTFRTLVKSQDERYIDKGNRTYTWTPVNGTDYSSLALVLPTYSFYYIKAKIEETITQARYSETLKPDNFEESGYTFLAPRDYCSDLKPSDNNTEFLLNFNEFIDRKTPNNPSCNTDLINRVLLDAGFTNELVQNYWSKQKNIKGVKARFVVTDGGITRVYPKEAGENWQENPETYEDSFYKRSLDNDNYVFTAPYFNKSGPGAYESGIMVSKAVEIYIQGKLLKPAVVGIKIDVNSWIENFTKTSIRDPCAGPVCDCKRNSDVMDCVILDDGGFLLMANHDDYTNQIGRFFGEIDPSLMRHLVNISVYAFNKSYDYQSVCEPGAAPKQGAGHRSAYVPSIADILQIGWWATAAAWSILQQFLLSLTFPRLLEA
Sequence of class A (P/Q) calcium channels (P13806 961-1106 partner limits assumed): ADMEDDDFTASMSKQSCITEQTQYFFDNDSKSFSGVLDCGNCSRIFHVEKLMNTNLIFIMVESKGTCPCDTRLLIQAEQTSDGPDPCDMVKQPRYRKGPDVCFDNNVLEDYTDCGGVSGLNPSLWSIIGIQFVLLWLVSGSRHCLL
Sequence of class A (P/Q) calcium channels (Q02641 whole entry partner): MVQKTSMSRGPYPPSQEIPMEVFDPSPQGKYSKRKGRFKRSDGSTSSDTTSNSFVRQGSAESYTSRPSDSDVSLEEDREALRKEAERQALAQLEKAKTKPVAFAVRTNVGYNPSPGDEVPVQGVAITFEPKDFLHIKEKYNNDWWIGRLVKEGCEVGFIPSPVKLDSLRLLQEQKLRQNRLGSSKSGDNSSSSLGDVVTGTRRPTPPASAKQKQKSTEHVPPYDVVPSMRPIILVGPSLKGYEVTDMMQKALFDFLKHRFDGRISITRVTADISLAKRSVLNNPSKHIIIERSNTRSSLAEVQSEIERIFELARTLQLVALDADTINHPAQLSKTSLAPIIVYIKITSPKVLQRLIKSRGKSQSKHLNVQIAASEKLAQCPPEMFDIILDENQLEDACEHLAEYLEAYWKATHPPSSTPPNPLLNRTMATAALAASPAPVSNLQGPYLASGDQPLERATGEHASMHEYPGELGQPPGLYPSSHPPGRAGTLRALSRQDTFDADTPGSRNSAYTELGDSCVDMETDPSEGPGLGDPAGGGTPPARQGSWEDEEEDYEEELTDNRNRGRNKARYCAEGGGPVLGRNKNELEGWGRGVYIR
Protocol: In these experiments, barium currents (4 mM barium, no added calcium, in medium) through the calcium channels were measured for technical reasons, in accordance with methods known in the art.
The cRNA for the alpha-1 subunit described in Mori et al. (1991) was expressed in Xenopus oocytes by standard methods (Goldin, 1992). For expression, cRNA for the alpha-1 subunit was co-injected with cRNA for the rabbit alpha2 and delta (Ellis et al. 1988) and human beta (Williams et al. 1992) subunits in equimolar ratios. Approximately 50 nL was injected per oocyte, with a total cRNA concentration of 0.8 μg/μL.
Currents were recorded, by two-electrode voltage clamp using a solution of 4 mM barium chloride, 38 mM potassium chloride, 36 mM tetraethylammonium chloride, 5 mM 4-aminopyridine, 0.4 mM niflumic acid, 5 mM HEPES (pH 7.5), and 0.1 mg/mL bovine serum albumin. Data were sampled at 5 kHz and filtered at 1 kHz utilizing a OC-725B voltage-clamp amplifier. (Warner Instruments) interfaced to PCLAMP software (Axon Instruments, Foster City, Calif.) for acquisition and analysis. Leak and capacitance currents were subtracted on-line using a P/4 protocol. Voltage pulses to 0 mV from a holding potential of −80 mV were used to elicit currents every 10 s.
The target of assay [3] is class B voltage-gated calcium channel (human alpha-1B subunit) stably expressed in S3 cells (HEK 293) (human) (UniProt Q00975). Kind of assay: cell-based or functional assay.
The subject of assay [4] is DBA/2 mice. Conditions: mouse, in vivo.
Assay [5] deals with T2, class E calcium channels (192C cells) (Homo sapiens, UniProt Q15878).
T2 construct: expressed in transfected cells; host or cells: HEK 293 (192C cells)
Format: cell-based.

Assay [6] deals with class E calcium channels (Homo sapiens, UniProt Q15878). Kind of assay: Class E channel blocking, summary statements (two separate measures of channel blocking activity). It is filed as cell-based. The settings on record: no method given.
Assay [7] concerns the target L-type calcium channels of GH3 cells (rat). Kind of assay: cell-based or functional assay.

What is called IC50 is the midpoint of a concentration-inhibition curve. Turning to `CCCC[C@@H]1NC(=O)[C@H](CC(C)C)NC(=O)[C@H](CCCNC(=N)N)NC(=O)[C@H](CO)NC(=O)[C@@H]2CSSC[C@@H]3NC(=O)[C@H](CO)NC(=O)CNC(=O)[C@H]([C@@H](C)O)NC(=O)[C@H](CSSC[C@H](N)C(=O)N[C@@H](CCCCN)C(=O)NCC(=O)N[C@@H](CCCCN)C(=O)NCC(=O)N[C@@H](C)C(=O)N[C@@H](CCCCN)C(=O)N2)NC(=O)[C@H](CSSC[C@@H](C(N)=O)NC(=O)[C@H](CCCCN)NC(=O)CNC(=O)[C@H](CO)NC(=O)[C@H](CCCNC(=N)N)NC3=O)NC(=O)[C@H](CC(=O)O)NC(=O)[C@H](Cc2ccc(O)cc2)NC1=O` [SNX-194], in assay [1], the IC50 was 1 nM and the “inhibition of remaining transient depolarization evoked increase in internal calcium” value is listed as “nearly completely inhibited”. In the case of `[Cd]` [cadmium], in assay [2] (concentration not given), the “effect on class A (P/Q) barium current” value is on record as “completely blocked”. Turning to HG-1 peptide, the IC50, block of peak inward calcium current, whole cell patch clamp of S-3 cells in assay [3] was determined as 800 nM. “SNX-629: synthetic truncated HG-1 peptide corresponding to HG 1 (7-41), SEQ ID NO: 15 (CRYMFGGCSVNDDCCPRLGCHSLFSYCAWDLTFSD)”: the “ED50 for the anticonvulsant effect” value in assay [4] was “about 5 μg/mouse”. Further, in assay [5], the “concentration inhibiting class E channels relative to that of HG-1 in the same assay” value is reported as “less than 20 times”. For “hanatoxin (ECRYLFGGCKTTSDCCKHEGCKFRDKTCAWDFTFS; listed as Grammostola spatulata)”, the “class E calcium channel antagonist activity” value in assay [6] is given as “neither of these peptides exhibits class E calcium channel antagonist activity”. “omega-Aga-IIIA (from UniProt P33034 1-76) (peptide)”: the apparent IC50, depolarization evoked calcium signal at 60 seconds, INDO-1, GH3 cells (partial block) in assay [7] is 1.5 nM.

B1: Aga-IIIA (peptide)
peptide: SCIDIGGDCDGEKDDCQCCRRNGYCSCYSLFGYLKSGCKCVVGTSAEFQGICRRKARQCYNSDPDKCESHNKPKRR
Take B1: in assay [1] (read-out: apparent IC50 for inhibition of depolarization evoked increase in internal calcium), the IC50 is 0.1 nM and ~0.1 nM. Besides, in assay [2] (60 nM), the “effect on class A (P/Q) barium current” value is on record as “partially blocked”.
